Key:
[1] = mass photometry in GDN, super-dimer/heterodimer ratio; conditions: glycan changed form; control: fully sialylated WT
[2] = native MS, super-dimer vs heterodimer abundance; conditions: glycan changed form; control: fully glycosylated WT

B1: 4F2hc (4F2 cell-surface antigen heavy chain): neuraminidase (desialylated) (protein)
parent chain: MELQPPEASIAVVSIPRQLPGSHSEAGVQGLSAGDDSELGSHCVAQTGLELLASGDPLPSASQNAEMIETGSDCVTQAGLQLLASSDPPALASKNAEVTGTMSQDTEVDMKEVELNELEPEKQPMNAASGAAMSLAGAEKNGLVKIKVAEDEAEAAAAAKFTGLSKEELLKVAGSPGWVRTRWALLLLFWLGWLGMLAGAVVIIVRAPRCRELPAQKWWHTGALYRIGDLQAFQGHGAGNLAGLKGRLDYLSSLKVKGLVLGPIHKNQKDDVAQTDLLQIDPNFGSKEDFDSLLQSAKKKSIRVILDLTPNYRGENSWFSTQVDTVATKVKDALEFWLQAGVDGFQVRDIENLKDASSFLAEWQNITKGFSEDRLLIAGTNSSDLQQILSLLESNKDLLLTSSYLSDSGSTGEHTKSLVTQYLNATGNRWCSWSLSQARLLTSFLPAQLLRLYQLMLFTLPGTPVFSYGDEIGLDAAALPGQPMEAPVMLWDESSFPDIPGAVSANMTVKGQSEDPGSLLSLFRRLSDQRSKERSLLHGDFHAFSAGPGLFSYIRHWDQNERFLVVLNFGDVGLSAGLQASDLPASASLPAKADLLLSTQPGREEGSPLELERLKLEPHEGLLLRFPYAA
[1]
  oligomerisation: decreases
[2]
  oligomerisation: decreases

— paper PMC11065870
